In the supplement of paper PMC7877785:
± gives the uncertainty stated by the source.

Assay: self-splicing fitness, log relative to wild type (ln ratio); higher = more splicing; Tetrahymena group I intron in knt gene, E. coli kanamycin selection, DiMSum; sequences stand for … in CUCUCU…GGAGGGAAAAGUUAUCAGGCAUGCACCUGGUAGCUAGUCUUUAAACCAAUAGAUUGCAUCGGUUUAAAAGGCAAGACCGUCAAAUUGCGGGAAAGGGGUCAACAGCCGUUCAGUACCAAGUCUCAGGGGAAACUUUGAGAUGGCCUUGCAAAGGGUAUGGUAAUAAGCUGACGGACAUGGUCCUAACCACGCAGCCAAGUCCUAAGUCAACAGAUCUUCUGUUGAUAUGGAUGCAGUUCACAGACUAAAUGUCGGUCGGGGAAGAUGUAUUCUUCUCAUAAGAUAUAGUCGGACCUCUCCUUAAUGGGAGCUAGCGGAUGAAGUGAUGCAACACUGGAGCCGCUGGGAACUAAUUUGUAUGCGAAAGUAUAUUGAUUAGUUUUGGAGUACUCGUGGUCG
How it was run: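 Pooled colonies went to amplicon sequencing on an Illumina HiSeq 2500 after six replicate transformations. The plates were LB agar with 100 μg/mL carbenicillin, 50 μM IPTG and 0.2% rhamnose, with or without 25 μg/mL kanamycin, incubated overnight at 37°C or 30°C. The E. coli BL21(DE3) library had all eight P1ex-region intron nucleotides randomised, the intron placed in the knt kanamycin-resistance gene on pET-22b(+). DiMSum fitness is the error-weighted combination of replicate fold changes, kanamycin against none, normalised to wild type.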

Sequence | self-splicing fitness (ln) (30 °C) | self-splicing fitness (ln) (37 °C)
GCAGAGCAAUAUUACGAAAC | -3.28 ± 0.14 | -2.23 ± 0.14
GCAGAGCAAUAUUACGAACG | – | -1.78 ± 0.43
GCAGAGCAAUAUUACGAAGU | -2.88 ± 0.12 | -1.03 ± 0.13
GCAGAGCAAUAUUACGACAG | -3.01 ± 0.15 | -2.74 ± 0.26
GCAGAGCAAUAUUACGACAU | -3.172 ± 0.023 | -2.06 ± 0.037
GCAGAGCAAUAUUACGACUA | -2.45 ± 0.27 | -2.12 ± 0.24
GCAGAGCAAUAUUACGACUU | -2.82 ± 0.16 | -0.936 ± 0.14
GCAGAGCAAUAUUACGAGAA | – | -1.96 ± 0.32
GCAGAGCAAUAUUACGAGAG | -3 ± 0.47 | -1.95 ± 0.32
GCAGAGCAAUAUUACGAGUA | -3.23 ± 0.5 | -1.35 ± 0.43
GCAGAGCAAUAUUACGAUCA | -4.02 ± 0.42 | -1.94 ± 0.18
GCAGAGCAAUAUUACGCAAG | -3.03 ± 0.16 | -2.28 ± 0.17
GCAGAGCAAUAUUACGCCUC | -2.46 ± 0.21 | -2.38 ± 0.34
GCAGAGCAAUAUUACGCCUG | – | -1.33 ± 0.47
GCAGAGCAAUAUUACGCGGA | -3.11 ± 0.34 | -2.91 ± 0.35
GCAGAGCAAUAUUACGCGGU | -4.68 ± 0.29 | -3.16 ± 0.37
GCAGAGCAAUAUUACGGACA | – | -0.844 ± 0.3
GCAGAGCAAUAUUACGGGCC | – | -0.867 ± 0.3
GCAGAGCAAUAUUACGGUCU | -3.54 ± 0.25 | -2.39 ± 0.27
GCAGAGCAAUAUUACGUAGG | -2.17 ± 0.11 | -1.7 ± 0.14
GCAGAGCAAUAUUACGUAUC | -2.59 ± 0.33 | -2.08 ± 0.41
GCAGAGCAAUAUUACGUCCA | -2 ± 0.25 | -2.98 ± 0.4
GCAGAGCAAUAUUACGUCGG | -2.57 ± 0.34 | -1.69 ± 0.46
GCAGAGCAAUAUUACGUUAA | -1.87 ± 0.27 | -2.64 ± 0.42
GCAUAGCAAUAUUACGAACG | -0.883 ± 0.14 | -0.356 ± 0.18

Sequence | self-splicing fitness (ln) (30 °C) | self-splicing fitness (ln) (37 °C)
GCAUAGCAAUAUUACGAAUC | -2.12 ± 0.33 | -1.55 ± 0.32
GCAUAGCAAUAUUACGAUAC | -1.47 ± 0.13 | -0.915 ± 0.14
GCAUAGCAAUAUUACGAUGG | -1.01 ± 0.09 | -0.54 ± 0.11
GCAUAGCAAUAUUACGAUUC | -0.8 ± 0.083 | -0.436 ± 0.097
GCAUAGCAAUAUUACGCAUU | -2.81 ± 0.26 | -0.0868 ± 0.17
GCAUAGCAAUAUUACGCCCA | -2.41 ± 0.19 | -0.965 ± 0.16
GCAUAGCAAUAUUACGCGAG | -2.42 ± 0.23 | -1.72 ± 0.17
GCAUAGCAAUAUUACGCGUA | -1.43 ± 0.13 | -0.403 ± 0.12
GCAUAGCAAUAUUACGCUAC | -3.61 ± 0.34 | -2.11 ± 0.27
GCAUAGCAAUAUUACGGAAG | -3.8 ± 0.34 | -2.09 ± 0.37
GCAUAGCAAUAUUACGGAAU | -2.21 ± 0.16 | -1.84 ± 0.23
GCAUAGCAAUAUUACGGCGG | -2.63 ± 0.19 | -2.26 ± 0.37
GCAUAGCAAUAUUACGGGGA | -3.23 ± 0.28 | -2.37 ± 0.19
GCAUAGCAAUAUUACGGUAC | -2.07 ± 0.097 | -1.47 ± 0.091
GCAUAGCAAUAUUACGGUAU | -2.86 ± 0.16 | -1.75 ± 0.12
GCAUAGCAAUAUUACGUAAG | -1.63 ± 0.083 | -0.386 ± 0.12
GCAUAGCAAUAUUACGUCGA | -1.63 ± 0.15 | -0.979 ± 0.15
GCAUAGCAAUAUUACGUCUG | -1.87 ± 0.068 | -0.701 ± 0.072
GCAUAGCAAUAUUACGUGGU | -3.13 ± 0.14 | -2.8 ± 0.15
GCAUAGCAAUAUUACGUGUU | -3.84 ± 0.14 | -2.36 ± 0.088
GCAUAGCAAUAUUACGUUCC | – | -2.25 ± 0.31
GCCAAGCAAUAUUACGAACC | -2.03 ± 0.12 | -0.423 ± 0.14
GCCAAGCAAUAUUACGAAGG | -2.52 ± 0.13 | -2.15 ± 0.22
GCCAAGCAAUAUUACGACCA | -1.48 ± 0.17 | -1.36 ± 0.19
GCCAAGCAAUAUUACGAGCU | -1.35 ± 0.12 | -1.46 ± 0.15

Sequence | self-splicing fitness (ln) (30 °C) | self-splicing fitness (ln) (37 °C)
GCCAAGCAAUAUUACGAGUU | -1.7 ± 0.066 | -0.45 ± 0.08
GCCAAGCAAUAUUACGAUAA | -3.09 ± 0.17 | -1.6 ± 0.2
GCCAAGCAAUAUUACGAUCG | -2.24 ± 0.22 | -2.42 ± 0.22
GCCAAGCAAUAUUACGCAGG | -2.98 ± 0.17 | -2.05 ± 0.24
GCCAAGCAAUAUUACGCGAC | -2.35 ± 0.11 | -0.858 ± 0.1
GCCAAGCAAUAUUACGCUCG | -3.5 ± 0.2 | -1.84 ± 0.15
GCCAAGCAAUAUUACGGAGA | -1.45 ± 0.086 | -0.924 ± 0.089
GCCAAGCAAUAUUACGGCCG | -1.48 ± 0.23 | -2.11 ± 0.46
GCCAAGCAAUAUUACGGCGA | -1.18 ± 0.093 | -0.756 ± 0.095
GCCAAGCAAUAUUACGGCGG | -3.3 ± 0.14 | -1.84 ± 0.16
GCCAAGCAAUAUUACGGCGU | -0.74 ± 0.067 | -0.453 ± 0.1
GCCAAGCAAUAUUACGGCUA | -1.66 ± 0.17 | -1.39 ± 0.15
GCCAAGCAAUAUUACGGGGA | -0.604 ± 0.065 | 0.0408 ± 0.085
GCCAAGCAAUAUUACGGGUG | -0.544 ± 0.049 | -0.591 ± 0.057
GCCAAGCAAUAUUACGGUUC | -2.61 ± 0.16 | -0.763 ± 0.12
GCCAAGCAAUAUUACGUCCA | -2.32 ± 0.18 | 0.44 ± 0.2
GCCAAGCAAUAUUACGUGAU | -0.879 ± 0.053 | 0.385 ± 0.07
GCCAAGCAAUAUUACGUGUA | -1.41 ± 0.068 | -0.64 ± 0.062
GCCAAGCAAUAUUACGUUAC | -2.55 ± 0.12 | -2.39 ± 0.18
GCCAAGCAAUAUUACGUUCA | -2.12 ± 0.11 | -0.947 ± 0.12
GCCCAGCAAUAUUACGAAUG | -4.15 ± 0.24 | -2.26 ± 0.23
GCCCAGCAAUAUUACGAGCU | -3.47 ± 0.19 | -1.89 ± 0.15
GCCCAGCAAUAUUACGAUCC | -0.561 ± 0.13 | -0.336 ± 0.19
GCCCAGCAAUAUUACGAUUC | -1.56 ± 0.074 | -0.274 ± 0.09
GCCCAGCAAUAUUACGCACA | -0.537 ± 0.092 | -0.518 ± 0.094

Sequence | self-splicing fitness (ln) (30 °C) | self-splicing fitness (ln) (37 °C)
GCCCAGCAAUAUUACGCAUA | -1.61 ± 0.093 | -0.164 ± 0.088
GCCCAGCAAUAUUACGCGAU | -2.76 ± 0.13 | 0.119 ± 0.1
GCCCAGCAAUAUUACGGACG | -0.702 ± 0.07 | -0.133 ± 0.097
GCCCAGCAAUAUUACGGCUU | -1.29 ± 0.071 | -0.757 ± 0.093
GCCCAGCAAUAUUACGGGGC | -2.87 ± 0.15 | -2.73 ± 0.25
GCCCAGCAAUAUUACGGUAU | -0.47 ± 0.055 | -0.0153 ± 0.068
GCCCAGCAAUAUUACGGUGA | -0.302 ± 0.045 | 0.206 ± 0.056
GCCCAGCAAUAUUACGGUUC | -0.85 ± 0.043 | -0.0899 ± 0.059
GCCCAGCAAUAUUACGUAAA | -0.596 ± 0.06 | -0.718 ± 0.097
GCCCAGCAAUAUUACGUAUA | -2.1 ± 0.11 | -1.33 ± 0.11
GCCCAGCAAUAUUACGUCCA | -0.999 ± 0.09 | -1.18 ± 0.12
GCCCAGCAAUAUUACGUCUA | -1.37 ± 0.084 | -1.15 ± 0.093
GCCCAGCAAUAUUACGUCUC | -1.3 ± 0.085 | -0.175 ± 0.086
GCCCAGCAAUAUUACGUGAA | -0.204 ± 0.053 | 0.177 ± 0.077
GCCCAGCAAUAUUACGUGAU | -0.455 ± 0.046 | -0.00599 ± 0.065
GCCCAGCAAUAUUACGUGUU | -0.583 ± 0.042 | -0.217 ± 0.054
GCCGAGCAAUAUUACGAAAU | -3.1 ± 0.39 | -1.62 ± 0.41
GCCGAGCAAUAUUACGACCA | -2.62 ± 0.3 | -2.31 ± 0.31
GCCGAGCAAUAUUACGACCC | -2.25 ± 0.34 | -0.208 ± 0.39
GCCGAGCAAUAUUACGAGCA | -1.93 ± 0.11 | -0.944 ± 0.11
GCCGAGCAAUAUUACGCAGC | -3.12 ± 0.29 | -2.22 ± 0.27
GCCGAGCAAUAUUACGCAGU | -2.75 ± 0.33 | -2.25 ± 0.23
